Results published in patent US20070196374A1 (published 2007).
Positions count from the first letter of the chain named. In names and notes the source's numbering stands.

What was measured:
VEGF [1] = molecular target: T1, VEGF (human, UniProt P15692-4 27-191, limits assumed); assay: competition ELISA: Fab + biotinylated VEGF, then KDR-IgG plate
T1 construct: also called vascular endothelial growth factor; biotinylated VEGF
Protocol: Standards (6.9-440 ng/ml chimeric F(ab)) and two-fold serial of samples were incubated with 2 nM biotinylated VEGF for 1 h in tubes. The solutions from the tubes were then transferred to the ELISA plates and incubated for 1 h. […] Titration curves were fit with a four-parameter nonlinear regression curve-fitting program (KaleidaGraph, Synergy Software, Reading Pa.). […] Assays for full-length IgG were the same as for the F(ab)s except that the assay buffer contained 10% human serum.

VEGF121 [2] = molecular target: T2, VEGF121 (human, UniProt P15692 27-147); assay: BIAcore SPR, VEGF121 on chip
T2 construct: mature; also called Purified VEGF121
T2 sequence (looked up): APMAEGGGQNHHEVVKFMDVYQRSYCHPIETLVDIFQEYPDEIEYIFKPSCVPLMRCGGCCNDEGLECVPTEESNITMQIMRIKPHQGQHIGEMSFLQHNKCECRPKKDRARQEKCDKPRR
Protocol: (§1) VEGF₁₂₁ was covalently immobilized on the biosensor chip via primary amino groups. Binding of humanized A4.6.1 Fab variants was measured by flowing solutions of Fab in PBS/0.05% TWEEN 20™ over the chip at a flow rate of 20 μL/min. Following each binding measurement, residual Fab was stripped from the immobilized ligand by washing with 5 μL of 50 mM aqueous HCl at 3 μL/min. Binding profiles were analyzed by nonlinear regression using a simple monovalent binding model (BIAevaluation software v2.0; Pharmacia).

VEGF121 [3] = molecular target: T2, VEGF121; assay: BIAcore SPR, VEGF121 on chip, Fab in flow
Protocol: as §1

VEGF [4] = molecular target: T1, VEGF; assay: BIAcore-2000 SPR, wt = Y0192
Protocol: (§2) The VEGF-binding affinities of Fab fragments were calculated from association and dissociation rate constants measured using a BIAcore-2000™ surface plasmon resonance system (BIAcore, Inc., Piscataway, N.J.). A biosensor chip was activated for covalent coupling of VEGF using N-ethyl-N′-(3-dimethylaminopropyl)-carbodiimide hydrochloride (EDC) and N-hydroxysuccinimide (NHS) according to the supplier's (BIAcore, Inc., Piscataway, N.J.) instructions. VEGF was buffered exchanged into 20 mM sodium acetate, pH 4.8 and diluted toapproximately 50 μg/mL. An aliquot (35 μL) was injected at a flow rate of 2 μL/min to achieve approximately 700-1400 response units (RU) of coupled protein. Finally, 1 M ethanolamine was injected as a blocking agent.
(§3) For kinetics measurements, two-fold serial dilutions of Fab were injected in PBS/TWEEN™ buffer (0.05% TWEEN 20™ in phosphate buffered saline) at 25° C. at a flow rate of 10 μL/min. […] Equilibrium dissociation constants, Kd's from surface plasmon resonance (SPR) measurements were calculated as koff/kon.

rhVEGF165 = rhVEGF165 (human, UniProt P15692 27-191); assay: cell-based or functional assay
VEGF [5] = molecular target: T1, VEGF; assay: BIAcore-2000 SPR
Protocol: as §2, §3

B1: F(ab)-1 (Fab, V domains shown)
VH: EVQLVESGGGLVQPGGSLRLSCAASGYTFTNYGMNWVRQAPGKGLEWVGWINTYTGEPTYAADFKRRFTISRDNSKNTLYLQMNSLRAEDTAVYYCARYPHYYGSSHWYFDVWGQGTLVTVSS
VL: DIQMTQSPSSLSASVGDRVTITCSASQDISNYLNWYQQKPGKAPKLLIYFTSSLHSGVPSRFSGSGSGTDFTLTISSLQPEDFATYYCQQYSTVPWTFGQGTKVEIK
- fold reduction of binding affinity against chimeric F(ab) (VEGF [1]): > 1000 fold

B2: hu2.10 (Fab, V domains shown)
VH: B1 VH with V37I, R72L, N74T, K76A, N77S, L79V, R98K
VL: B1 VL with F71Y
notes: Phage-selected consensus clone, soluble Fab with human constant domains; also called consensus clone hu2.10
- fold tighter KD against hu2.0 (VEGF121 [2]): ≥ 125 fold
- KD(A4.6.1)/KD(mut) as headed (values run as KD(mut)/KD(A4.6.1)) (VEGF121 [3]): 35 ratio

B3: F(ab)-8 (Fab, V domains shown)
VH: B1 VH with I70F, R72L, N74T, L79A
VL: B1 VL with L46V
notes: F(ab)-5 with IleH69Phe and LeuH78Ala; Human CH1 and CL
- fold improvement of binding against F(ab)-5 (VEGF [1]): 8 fold

B4: F(ab)-9 (Fab, V domains shown)
VH: B1 VH with G49A, I70F, R72L, N74T, L79A
VL: B1 VL with L46V
notes: F(ab)-8 with GlyH49Ala; Human CH1 and CL
- fold reduction of binding against F(ab)-8 (VEGF [1]): 15 fold

B5: F(ab)-7 (Fab, V domains shown)
VH: B1 VH with I70F, R72L, N74T
VL: B1 VL with L46V
notes: F(ab)-5 with IleH69Phe; Human CH1 and CL
- fold improvement of binding against F(ab)-5 (VEGF [1]): 2 fold

B6: F(ab)-6 (Fab, V domains shown)
VH: B1 VH with R72L, N74T, L79A
VL: B1 VL with L46V
notes: F(ab)-5 with LeuH78Ala; Human CH1 and CL
- fold improvement of binding against F(ab)-5 (VEGF [1]): 2 fold

B7: F(ab)-5 (Fab, V domains shown)
VH: B1 VH with R72L, N74T
VL: B1 VL with L46V
notes: Human CH1 and CL
- fold increase of binding affinity against F(ab)-4 (VEGF [1]): ~4 fold

B8: hu2.10V (Fab, V domains shown)
VH: B1 VH with V37I, R72L, N74T, K76A, N77S, L79V, R98K
VL: B1 VL with L46V, F71Y
notes: hu2.10 with the Leu->Val change at VL 46; Fab
- fold improvement in KD against hu2.10 (VEGF121 [2]): 6 fold
- KD(A4.6.1)/KD(mut) as headed (values run as KD(mut)/KD(A4.6.1)) (VEGF121 [3]): 5.8 ratio

B9: Y0238-1 (Fab, V domains shown)
VH: EVQLVESGGGLVQPGGSLRLSCAASGYTFTNYGINWVRQAPGKGLEWVGWINTYTGEPTYAADFKRRFTFSLDTSKSTAYLQMNSLRAEDTAVYYCAKYPYYRGTSHWYFDVWGQGTL
VL: DIQLTQSPSSLSASVGDRVTITCRANEQLSNYLNWYQQKPGKAPKVLIYFTSSLHSGVPSRFSGSGSGTDFTLTISSLQPEDFATYYCQQYSTVPWTFGQGTKVEIKR
notes: Clone of library YC-81 on the pY0192 template; Soluble Fab
- Kd (wt)/Kd (VEGF [4]): 7.3 ratio

B10: Y0313-1 (Fab, V domains shown)
VH: B9 VH with T28D, N31H, I34M, R103Y
VL: B9 VL
notes: Y0243-1 with VH3 H101Y and S105T; soluble Fab
- potency in the HuVEC assay relative to the wild-type Fab (Y0192) (rhVEGF165): > 30 fold
- Kd (wt)/Kd (VEGF [4]): ≥ 20 ratio

B11: Y0244-4 (Fab, V domains shown)
VH: B9 VH with L72I, T74K, Y101H, R103Y, T105S
VL: B9 VL
notes: Soluble Fab
- Kd (wt)/Kd (VEGF [4]): 0.9 ratio

B12: Y0313-3 (Fab, V domains shown)
VH: B9 VH with R103Y, T105S
VL: B9 VL
notes: Reversion mutant of Y0238-3 (VH3 T105S); soluble Fab
- Kd (wt)/Kd (VEGF [4]): 4.5 ratio

B13: Y0238-7 (Fab, V domains shown)
VH: B9 VH with R103W
VL: B9 VL
notes: as for B9
- Kd (wt)/Kd (VEGF [4]): ≥ 7.3 ratio

B14: Y0244-1 (Fab, V domains shown)
VH: B9 VH with L72V, T74V, Y101H, R103Y, T105S
VL: B9 VL
notes: Soluble Fab
- Kd (wt)/Kd (VEGF [4]): 3.6 ratio

B15: Y0243-1 (Fab, V domains shown)
VH: B9 VH with T28D, N31H, I34M, Y101H, R103Y, T105S
VL: B9 VL
notes: Soluble Fab from E. coli 34B8
- Kd (wt)/Kd (VEGF [4]): 4.1 ratio

B16: Y0238-10 (Fab, V domains shown)
VH: B9 VH with G104N
VL: B9 VL
notes: as for B9
- Kd (wt)/Kd (VEGF [4]): 4.8 ratio

B17: Y0238-3 (Fab, V domains shown)
VH: B9 VH with R103Y
VL: B9 VL
notes: Soluble Fab from E. coli 34B8
- Kd (VEGF [5]): 0.15 nM
- Kd (wt)/Kd (VEGF [4]): ≥ 14 ratio

B18: Y0238-5 (Fab, V domains shown)
VH: B9 VH with R103I, G104A, T105K
VL: B9 VL
notes: as for B9
- Kd (wt)/Kd (VEGF [4]): 3.2 ratio

B19: chimeric F(ab) (Fab, V domains shown)
VH: EIQLVQSGPELKQPGETVRISCKASGYTFTNYGMNWVKQAPGKGLKWMGWINTYTGEPTYAADFKRRFTFSLETSASTAYLQISNLKNDDTATYFCAKYPHYYGSSHWYFDVWGAGTTVTVSS
VL: DIQMTQTTSSLSASLGDRVIISCSASQDISNYLNWYQQKPDGTVKVLIYFTSSLHSGVPSRFSGSGSGTDYSLTISNLEPEDIATYYCQQYSTVPWTFGGGTKLEIKR
notes: Murine A4.6.1 VH fused to human CH1 at SerH113 and murine VL fused to human CL at LysL107; also called chim-F(ab); A4.6.1 chimera
- EC50 (VEGF [1]): 49 µg/mL
